Experiments:
[1] = target: wild type Arabidopsis AHAS large subunit protein (pAC774) (UniProt P17597)
[2] = target: herbicide-resistant mutant (Met124His) Arabidopsis AHAS large subunit protein (UniProt P17597)

Sequence of Arabidopsis AHAS small subunit protein expressed from plasmid F1 (chain, as listed by the source): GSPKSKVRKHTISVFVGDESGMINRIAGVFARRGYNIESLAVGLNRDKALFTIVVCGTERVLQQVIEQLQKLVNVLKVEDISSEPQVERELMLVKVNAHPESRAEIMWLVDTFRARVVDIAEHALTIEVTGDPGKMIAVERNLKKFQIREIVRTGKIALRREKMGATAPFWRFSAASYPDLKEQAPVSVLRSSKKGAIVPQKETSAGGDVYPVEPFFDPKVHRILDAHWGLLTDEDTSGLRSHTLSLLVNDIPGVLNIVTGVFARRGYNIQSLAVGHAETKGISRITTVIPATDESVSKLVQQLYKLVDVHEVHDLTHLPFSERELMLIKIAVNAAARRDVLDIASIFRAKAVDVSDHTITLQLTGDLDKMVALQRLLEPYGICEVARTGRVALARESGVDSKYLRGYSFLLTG

Substance: Arabidopsis AHAS small subunit protein expressed from plasmid F1
- AHAS enzymatic activity of the large subunit in vitro, with increasing amounts of small subunit [1]: small subunit protein enhances the level of enzymatic activity of the catalytic large subunit
- AHAS enzymatic activity of the mutant large subunit in vitro, in the presence of small subunit [2]: the enzymatic activity of a herbicide-resistant form of the large subunit is also enhanced
